Measurements published in paper doi:10.1101/2024.05.17.594671, “Mechanism of TAX1BP1 recruitment in aggrephagy to switch from cargo collection to sequestration” (bioRxiv, 2024).

What was measured:
Conditions in all cases: both partners purified
[1] = target: T1, 10x-His-mCherry-TAX1BP1 (full length, FL) (UniProt Q86VP1 1-789); assay: microscopy-based protein-protein interaction assay (beads); mCherry-TAX1BP1 FL or ΔN on RFP-trap beads; GFP tagged NBR1 fragment CC2-LIR1 as prey
T1 construct: TAX1BP1, full length (FL); also called mCh-TAX1BP1; mCherry-TAX1BP1 FL; source: Sf9 insect cells (pLIB vector, baculovirus), purified as described previously; not shown: mCherry, N-terminal, kept
T1 sequence (Q86VP1 whole entry, the tested form may be a part): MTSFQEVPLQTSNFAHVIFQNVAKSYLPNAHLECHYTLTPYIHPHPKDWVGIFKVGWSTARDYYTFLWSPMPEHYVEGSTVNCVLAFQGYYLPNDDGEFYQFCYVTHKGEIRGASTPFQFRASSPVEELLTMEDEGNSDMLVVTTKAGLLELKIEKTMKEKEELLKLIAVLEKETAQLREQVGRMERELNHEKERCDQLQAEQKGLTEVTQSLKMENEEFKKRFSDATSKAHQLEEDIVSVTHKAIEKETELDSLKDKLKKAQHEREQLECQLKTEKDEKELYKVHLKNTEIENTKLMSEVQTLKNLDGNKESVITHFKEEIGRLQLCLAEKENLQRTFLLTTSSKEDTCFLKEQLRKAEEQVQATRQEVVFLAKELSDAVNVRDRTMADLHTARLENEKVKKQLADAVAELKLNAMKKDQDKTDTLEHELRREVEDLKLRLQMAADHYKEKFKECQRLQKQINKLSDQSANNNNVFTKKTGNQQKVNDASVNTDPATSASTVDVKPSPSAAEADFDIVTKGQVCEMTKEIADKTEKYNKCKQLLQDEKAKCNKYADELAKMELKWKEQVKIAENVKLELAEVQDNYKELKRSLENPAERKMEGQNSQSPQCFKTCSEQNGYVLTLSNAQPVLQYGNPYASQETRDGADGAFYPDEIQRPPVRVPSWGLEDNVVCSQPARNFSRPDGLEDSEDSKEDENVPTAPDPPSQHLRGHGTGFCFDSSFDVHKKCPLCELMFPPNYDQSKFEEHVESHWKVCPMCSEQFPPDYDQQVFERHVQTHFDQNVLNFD

[2] = target: T2, GFP-NBR1 (recombinant, purified) (UniProt Q14596 1-966); assay: microscopy-based protein-protein interaction assay (beads); 2.5 µM GST-TAX1BP1 (FL, domain, truncations, point mutants) as bait on GST beads; 1 µM GFP-NBR1 as prey; 25 mM HEPES pH 7.5, 150 mM NaCl, 1 mM DTT; 15-30 min at RT; confocal imaging
T2 construct: NBR1; source: HEK293 (pCAGGSsH-C vector, VBCF ProTech facility), purified as described previously; not shown: GFP, N-terminal, kept
T2 sequence (looked up): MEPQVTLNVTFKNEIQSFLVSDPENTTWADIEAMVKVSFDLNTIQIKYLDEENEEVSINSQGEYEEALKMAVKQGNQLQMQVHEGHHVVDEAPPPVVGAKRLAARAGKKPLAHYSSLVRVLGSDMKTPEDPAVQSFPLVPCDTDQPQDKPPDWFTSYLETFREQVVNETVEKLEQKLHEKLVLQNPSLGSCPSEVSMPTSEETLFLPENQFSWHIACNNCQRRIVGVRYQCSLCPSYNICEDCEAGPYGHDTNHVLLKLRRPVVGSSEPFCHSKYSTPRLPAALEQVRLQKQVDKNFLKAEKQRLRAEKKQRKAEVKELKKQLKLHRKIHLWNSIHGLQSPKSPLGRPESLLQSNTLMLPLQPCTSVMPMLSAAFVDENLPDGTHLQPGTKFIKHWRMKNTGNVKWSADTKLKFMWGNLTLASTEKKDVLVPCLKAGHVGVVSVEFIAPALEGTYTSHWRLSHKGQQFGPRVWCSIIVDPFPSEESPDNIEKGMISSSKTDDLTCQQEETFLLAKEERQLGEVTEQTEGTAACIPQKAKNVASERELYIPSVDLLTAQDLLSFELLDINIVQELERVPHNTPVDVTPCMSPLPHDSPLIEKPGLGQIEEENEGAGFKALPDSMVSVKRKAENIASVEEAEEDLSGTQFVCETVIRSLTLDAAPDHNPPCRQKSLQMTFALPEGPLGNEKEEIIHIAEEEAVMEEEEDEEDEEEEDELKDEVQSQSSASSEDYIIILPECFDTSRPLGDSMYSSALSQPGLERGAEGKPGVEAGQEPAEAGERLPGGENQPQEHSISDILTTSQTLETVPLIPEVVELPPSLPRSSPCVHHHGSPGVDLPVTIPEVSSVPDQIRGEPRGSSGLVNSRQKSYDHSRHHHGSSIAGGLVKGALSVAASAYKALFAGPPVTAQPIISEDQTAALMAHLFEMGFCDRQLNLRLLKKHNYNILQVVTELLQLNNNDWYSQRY

[3] = target: T3, NBR1 (untagged, recombinant) (UniProt Q14596 1-966); assay: in vitro condensation assay (recruitment to p62 condensates, microscopy); 2 µM mCherry-p62 S403E, 1 µM NBR1 (or without NBR1), 2 µM GFP-TAX1BP1 (FL, ΔN or ΔZnF; N domain) in 25 mM HEPES pH 7.5, 150 mM NaCl, 1 mM DTT; condensation triggered with 5 µM GST-4xUB; spinning disk microscopy
T3 construct: NBR1; source: HEK293 (pCAGGSsH-C vector, VBCF ProTech facility), purified as described previously
T3 sequence (looked up): T2 sequence (looked up)

B1: GFP-CC2-LIR1 (NBR1 aa685 - aa757) (domain or fragment, UniProt Q14596 685-757, looked up)
chain: LGNEKEEIIHIAEEEAVMEEEEDEEDEEEEDELKDEVQSQSSASSEDYIIILPECFDTSRPLGDSMYSSALSQ
notes: NBR1 fragment CC2-LIR1, aa685-757; The methods name the purified protein GST-GFP-CC2-LIR1 and give elution either by TEV cleavage or by glutathione; also called GST-GFP-CC2-LIR1; GFP tagged NBR1 fragment (CC2-LIR2); source: E. coli Rosetta (pGEX-4T1), purified (GST beads, SEC); not shown: GFP, N-terminal, kept
[1]
  binding result: binds

B2: GST-N domain (aa420-506 of TAX1BP1) (domain or fragment, UniProt Q86VP1 420-506, looked up)
chain: DQDKTDTLEHELRREVEDLKLRLQMAADHYKEKFKECQRLQKQINKLSDQSANNNNVFTKKTGNQQKVNDASVNTDPATSASTVDVK
[2]
  binding result: binds

B3: GFP-N-domain (aa420-506 of TAX1BP1) (domain or fragment, UniProt Q86VP1 420-506, looked up)
chain: B2 chain
notes: TAX1BP1 N-domain, aa420-506; Cloned into pGEX-4T1; the methods name the purified protein GFP-N domain and give elution either by TEV cleavage or by glutathione; also called N-domain alone; isolated N-domain; source: E. coli Rosetta (pGEX-4T1), purified (GST beads, SEC); not shown: GFP, N-terminal, kept
[3]
  binding result: binds
